Values quoted from earlier work, collected in publication PMC3393814.
pKd: −log10 of the molar value.

Biological target: Nrf2 14mer peptide (Homo sapiens)
Experiment: ITC

pKd: 7.70
Substance: Keap1 (from UniProt Q14145)
